Molecular target: hexa-histidine tagged ComP from A. baylyi ADP1 (ComPADP1)

B1: PglS oligosaccharyltransferase from A. baylyi ADP1 (PglSADP1) (protein)
chain: MNSIFKKIKNYTIVSGVFFLGSAFIIPNTSNLSSTLYKELIAVLGLLILLTVKSFDYKKILIPKNFYWFLFVIFIIFIQLIVGEIYFFQDFFFSISFLVILFLSFLLGFNERLNGDDLIVKKIAWIFIIVVQISFLIAINQKIEIVQNFFLFSSSYNGRSTANLGQPNQFSTLILITLFLLCYLREKNSLNNMVFNILSFCLIFANVMTQSRSAWISVILISLLYLLKFQKKIELRRVIFFNIVFWTLVYCVPLLFNLIFFQKNSYSTFDRLTMGSSRFEIWPQLLKAVFHKPFIGYGWGQTGVAQLETINKSSTKGEWFTYSHNLFLDLMLWNGFFIGLIISILILCFLIELYSSIKNKSDLFLFFCVVAFFVHCLLEYPFAYTYFLIPVGFLCGYISTQNIKNSISYFNLSKRKLTLFLGCCWLGYVAFWVEVLDISKKNEIYARQFLFSNHVKFYNIENYILDGFSKQLDFQYLDYCELKDKYQLLDFKKVAYRYPNASIVYKYYSISAEMKMDQKSANQIIRAYSVIKNQKIIKPKLKFCSIEY
glycosylation of acceptor with K. pneumoniae K1 or K2 capsular polysaccharide, western blot: PglS was able to glycosylate ComP with the K1 and K2 capsular polysaccharides from K. pneumonia
